Results on three molecules are retold here after paper PMC10175506, “Cryo-electron microscopy of the f1 filamentous phage reveals insights into viral infection and assembly” (Nature Communications, 2023).

The labels stand for the following.
B1: pIX, minor capsid protein of f1 phage (natural protein, UniProt P69537 1-32, looked up)
chain: MSVLVYSFASFVLGWCLRSGITYFTRLMETSS
notes: Five copies stand in the round tip of the nanorod; source: expressed from helper plasmid pHP1YM in double-transformed host cells, assembled into f1-derived nanorods; nanorods purified from the supernatant (PEG, CsCl density gradient, anion exchange)
B2: pVII, minor capsid protein of f1 phage (natural protein, UniProt P69534 1-33, looked up)
chain: MEQVADFDTIYQAMIQISVVLCFALGIIAGGQR
notes: the five N-terminal residues (MEQVA) are not visible in the map; Arg 33 is the C-terminal residue; Five copies stand in the round tip of the nanorod; source: expressed from helper plasmid pHP1YM in double-transformed host cells, assembled into f1-derived nanorods; nanorods purified from the supernatant (PEG, CsCl density gradient, anion exchange)
B3: pVI, minor capsid protein of f1 phage (natural protein, UniProt P69531 1-112, looked up)
chain: MPVLLGIPLLLRFLGFLLVTLFGYLLTFLKKGFGKIAIAISLFLALIIGLNSILVGYLSDISAQLPSDFVQGVQLILPSNALPCFYVILSVKAAIFIFDVKQKIVSYLDWDK
notes: density observed for the entire protein; Five copies stand in the pointy tip of the nanorod; source: expressed from helper plasmid pHP1YM in double-transformed host cells, assembled into f1-derived nanorods; nanorods purified from the supernatant (PEG, CsCl density gradient, anion exchange)

Data set [1] addresses B2. Put plainly: cryo-EM structure; purified f1-derived nanorods (529-nt ssDNA) plunge-frozen; map of the round tip, 5-fold symmetry applied, 2.8 Å. The conditions noted are these: both partners purified.
Data set [2] concerns the molecule itself. The description is as above.
Data set [3] concerns the molecule itself. Put plainly: cryo-EM structure; purified f1-derived nanorods (529-nt ssDNA) plunge-frozen; map of the pointy tip, 5-fold symmetry applied, 2.9 Å.

Consider B1, for which the binding result in data set [1] was “binds”. Regarding B2, in data set [2], the “stoichiometry N” value came out at 5. With B3, the “stoichiometry N” value in data set [3] was determined as 5.
